How the values were obtained:
[1] = target: human lymphotoxin (TNFβ) (human) (UniProt P01374); test: cell-based or functional assay
[2] = target: human tumor necrosis factor-α (TNFα) (human, UniProt P01375 77-233); test: cell-based or functional assay
human tumor necrosis factor-α (TNFα), sequence (P01375 77-233): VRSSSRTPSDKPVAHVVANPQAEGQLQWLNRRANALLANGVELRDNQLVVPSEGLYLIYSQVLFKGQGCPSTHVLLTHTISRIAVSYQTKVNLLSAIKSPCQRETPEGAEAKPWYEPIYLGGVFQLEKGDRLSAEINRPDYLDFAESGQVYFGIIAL

human lymphotoxin (TNFβ) (human), sequence (P01374 35-205 limits assumed): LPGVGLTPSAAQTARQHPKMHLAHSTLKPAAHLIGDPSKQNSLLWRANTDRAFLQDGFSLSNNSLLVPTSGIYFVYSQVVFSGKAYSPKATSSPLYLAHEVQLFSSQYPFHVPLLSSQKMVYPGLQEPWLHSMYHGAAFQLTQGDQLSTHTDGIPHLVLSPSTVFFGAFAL

Work on “p55-sf2 (p55 TNF receptor / IgG1 heavy chain single fusion with truncated light chain JCK) (from UniProt P19438) (Fc fusion)” yielded an amount needed for the same inhibition of TNFβ cytotoxicity, against p75P-sf2 (fold against p75P-sf2) [1] of 3.

B1: p75-sf2 (complete extracellular domain of p75 fused to the IgG1 heavy chain, with truncated light chain) (Fc fusion)
chain: QLPAQVAFTPYAPEPGSTCRLREYYDQTAQMCCSKCSPGQHAKVFCTKTSDTVCDSCEDSTYTQLWNWVPECLSCGSRCSSDQVETQACTREQNRICTCRPGWYCALSKQEGCRLCAPLRKCRPGFGVARPGTETSDVVCKPCAPGTFSNTTSSTDICRPHQICNVVAIPGNASMDAVCTSTSPTRSMAPGAVHLPQPVSTRSQHTQPTPEPSTAPSTSFLLPMGPSPPAEGSTGDGTLVTVSS
In the case of B1, the “amount needed for 50% inhibition of TNFα cytotoxicity, against p55-sf2” value [2] is reported as roughly 2 fold against p55-sf2.

B2: chimeric mouse/human IgG1 anti-platelet mAb (7E3) (antibody, INN chains, looked up, V domains shown)
VH: EVQLQQSGTVLARPGASVKMSCEASGYTFTNYWMHWVKQRPGQGLEWIGAIYPGNSDTSYIQKFKGKAKLTAVTSTTSVYMELSSLTNEDSAVYYCTLYDGYYVFAYWGQGTLVTVSA
VL: EIVLTQSPVTLSVTPGDSVSLSCRASRDISNNLHWFQQTSHESPRLLIKYASQSMSGIPSRFSGSGSGTDFTLSINSVETEDFGMYFCQQTNSWPYTFGGGTKLEIK
modifications: IgG1
Molecule B2 has an IL-6 secreted by FS-4 fibroblasts (ng/ml); 4 µg/ml antibody, 0.3 ng/ml TNF (no antibody: 1.36) [2] of 1.6 ng/ml IL-6, an IL-6 secreted by FS-4 fibroblasts (ng/ml); 4 µg/ml antibody, 1.5 ng/ml TNF (no antibody: 2.00) [2] of 1.96 ng/ml IL-6 and an IL-6 secreted by FS-4 fibroblasts (ng/ml); 4 µg/ml antibody, 7.5 ng/ml TNF (no antibody: 2.56) [2] of 2.16 ng/ml IL-6.
